Test results published in PMC3271384 (Molecular Genetics and Metabolism, 2012).
Where a chain is given by its changes, count along the chain named. Numbers in names are those of the source.

B1: AGT-Mi (Homo sapiens; G161S/I340M/P11L) (protein)
chain: MASHKLLVTPLKALLKPLSIPNQLLLGPGPSNLPPRIMAAGGLQMIGSMSKDMYQIMDEIKEGIQYVFQTRNPLTLVISGSGHCALEAALVNVLEPGDSFLVGANGIWGQRAVDIGERIGARVHPMTKDPGGHYTLQEVEEGLAQHKPVLLFLTHGESSTSVLQPLDGFGELCHRYKCLLLVDSVASLGGTPLYMDRQGIDILYSGSQKALNAPPGTSLISFSDKAKKKMYSRKTKPFSFYLDIKWLANFWGCDDQPRMYHHTIPVISLYSLRESLALIAEQGLENSWRQHREAAAYLHGRLQALGLQLFVKDPALRLPTVTTVAVPAGYDWRDIVSYVMDHFDIEIMGGLGPSTGKVLRIGLLGCNATRENVDRVTEALRAALQHCPKKKL
B2: AGT-Ma (Homo sapiens; S218L) (protein)
chain: B1 chain with L11P, S161G, S218L, M340I
B3: AGT-Ma (Homo sapiens; P319L) (protein)
chain: B1 chain with L11P, S161G, P319L, M340I
B4: alanine:glyoxylate aminotransferase variant W108R on the minor allele (enzyme, human, UniProt P21549 1-392, looked up)
chain: B1 chain with W108R, S161G
modifications: holo-form: pyridoxal 5'-phosphate in Schiff base linkage with the lysine at position 209; apo-form: without PLP
B5: alanine:glyoxylate aminotransferase variant S158L on the major allele (enzyme, human, UniProt P21549 1-392, looked up)
chain: B1 chain with L11P, S158L, S161G, M340I
modifications: holo-form: pyridoxal 5'-phosphate in Schiff base linkage with the lysine at position 209; apo-form: without PLP
B6: alanine:glyoxylate aminotransferase variant G161S on the minor allele (enzyme, human, UniProt P21549 1-392, looked up)
chain: B1 chain
modifications: holo-form: pyridoxal 5'-phosphate in Schiff base linkage with the lysine at position 209; apo-form: without PLP
B7: alanine:glyoxylate aminotransferase variant G161C on the minor allele (enzyme, human, UniProt P21549 1-392, looked up)
chain: B1 chain with S161C
modifications: holo-form: pyridoxal 5'-phosphate in Schiff base linkage with the lysine at position 209; apo-form: without PLP
B8: alanine:glyoxylate aminotransferase variant D183N on the major allele (enzyme, human, UniProt P21549 1-392, looked up)
chain: B1 chain with L11P, S161G, D183N, M340I
modifications: holo-form: pyridoxal 5'-phosphate in Schiff base linkage with the lysine at position 209; apo-form: without PLP
B9: alanine:glyoxylate aminotransferase variant S187F on the major allele (enzyme, human, UniProt P21549 1-392, looked up)
chain: B1 chain with L11P, S161G, S187F, M340I
modifications: holo-form: pyridoxal 5'-phosphate in Schiff base linkage with the lysine at position 209; apo-form: without PLP
B10: alanine:glyoxylate aminotransferase variant S218L on the major allele (enzyme, human, UniProt P21549 1-392, looked up)
chain: B1 chain with L11P, S161G, S218L, M340I
modifications: holo-form: pyridoxal 5'-phosphate in Schiff base linkage with the lysine at position 209; apo-form: without PLP
B11: alanine:glyoxylate aminotransferase variant P319L on the major allele (enzyme, human, UniProt P21549 1-392, looked up)
chain: B1 chain with L11P, S161G, P319L, M340I
modifications: holo-form: pyridoxal 5'-phosphate in Schiff base linkage with the lysine at position 209; apo-form: without PLP
B12: alanine:glyoxylate aminotransferase variant G350D on the minor allele (enzyme, human, UniProt P21549 1-392, looked up)
chain: B1 chain with S161G, G350D
modifications: holo-form: pyridoxal 5'-phosphate in Schiff base linkage with the lysine at position 209; apo-form: without PLP

What was measured:
[1] = substrate: O=CC(=O)O; experiment: spectrophotometric assay of pyruvate, coupled lactate dehydrogenase; type: biochemical, Homo sapiens; details: saturating L-alanine as co-substrate; saturating PLP
[2] = substrate: C[C@H](N)C(=O)O; experiment: as above; type: biochemical, Homo sapiens; details: saturating glyoxylate as co-substrate; saturating PLP
dynamic light scattering = biological target: the molecule itself; experiment: dynamic light scattering

Row | Protein | stoichiometry N (dynamic light scattering) | also measured
1 | B1 |  | Km [1]: 630 ± 70 µM; kcat [1]: 58 ± 2 s⁻¹; kcat/Km [1]: 92000 ± 2000 M⁻¹ s⁻¹
2 | B2 |  | Km [2]: 29000 ± 6000 µM; kcat [2]: 2.7 ± 0.1 s⁻¹; kcat/Km [2]: 90 ± 20 M⁻¹ s⁻¹
3 | B3 |  | Km [1]: 110 ± 20 µM; kcat [1]: 26.2 ± 0.7 s⁻¹; kcat/Km [1]: 238000 ± 44000 M⁻¹ s⁻¹
4 | B4 | 2 | 
5 | B5 | 2 | 
6 | B6 | 2 | 
7 | B7 | 2 | 
8 | B8 | 2 | 
9 | B9 | 2 | 
10 | B10 | 2 | 
11 | B11 | 2 | 
12 | B12 | 2 | 
